Source: patent US20260274955A1 (JANUX THERAPEUTICS, published 2026)

Assays:
[1] = target: Anti-CD28 Fab (SEQ ID NOs: 202, 203); experiment: phage binding ELISA on captured Fab;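 further: clonal phage supernatants added briefly to wells pre-incubated with CD28 antigen or with blocking buffer only, then washed, bound phage read by ELISA using HRP-coupled anti-M13 antibody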
Target sequence in this assay (VH, as listed by the source, chain 1 of 2): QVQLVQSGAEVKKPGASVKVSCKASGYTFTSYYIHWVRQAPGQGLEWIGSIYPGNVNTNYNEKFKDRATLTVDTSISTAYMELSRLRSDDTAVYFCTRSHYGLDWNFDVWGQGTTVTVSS
Target sequence in this assay (VL, as listed by the source, chain 2 of 2): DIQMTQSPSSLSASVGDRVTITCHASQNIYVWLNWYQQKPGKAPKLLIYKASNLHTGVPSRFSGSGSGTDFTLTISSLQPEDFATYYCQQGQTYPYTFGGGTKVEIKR
Description: Clonal phage were harvested as crude supernatants and screened via standard ELISAs. […] Prior to the addition of clonal phage, wells were incubated with blocking buffer and CD28 antigen or blocking buffer alone. Without washing or aspirating, clonal phage supernatants were then added to the wells and incubated for a short time. Wells were then washed followed by detection of bound phage using a horse radish conjugated anti-M13 antibody.

[2] = target: T1, Anti-CD28 Fab (SEQ ID NOs: 202, 203); experiment: phage ELISA, Fab on plate;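 further: crude clonal phage supernatants added to wells pretreated with blocking buffer with or without CD28 antigen, then bound phage read out via HRP-linked anti-M13 antibody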
T1 construct: biotinylated and captured on neutravidin coated plates in the phage ELISA
T1 sequence (VH, as listed by the source, chain 1 of 2): as the sequence (VH, as listed by the source, chain 1 of 2) above
T1 sequence (VL, as listed by the source, chain 2 of 2): as the sequence (VL, as listed by the source, chain 2 of 2) above
Description: (§1) After panning, phage infected bacteria were plated out and colonies picked into 96 well blocks. Clonal phage was then amplified and separated from bacterial cells via centrifugation.
(§2) Clonal phage were harvested as crude supernatants and screened via standard ELISAs. […] Prior to the addition of clonal phage, wells were incubated with blocking buffer and CD28 antigen or blocking buffer alone. Without washing or aspirating, clonal phage supernatants were then added to the wells and incubated for a short time. Wells were then washed followed by detection of bound phage using a horse radish conjugated anti-M13 antibody. Clonal phage of interest were then sent for sequence analysis.

[3] = target: T1, Anti-CD28 Fab (SEQ ID NOs: 202, 203); experiment: phage ELISA, Fab on plate, CD28 antigen as competitor
Description: as §1, §2

Binder | Anti-CD28 Fab signal [1] | Anti-CD28 Fab (SEQ ID NOs: 202, 203) signal [2] | Anti-CD28 Fab signal in the presence of CD28 [3]
FMCLPQNPHPLCFK [Phage-3] | 0.84 | – | –
GCQYPWAFDAMSCP [Phage-6] | 2.38 | – | –
YCEGHLWEYLAKCL [Phage-734] | – | 1.1 | 0.05
YCAGMSTIQLWLKC [Phage-20] | 2.16 | – | –
WICDKSGSIMLCRA [Phage-17] | 0.91 | – | –
WECLKYTEANACTY [Phage-2] | 1.55 | – | –
YCDGHSFHYMAKCL [Phage-740] | – | 1.08 | 0.06
YWYCSPSIVRCVLV [Phage-15] | 1.51 | – | –
YCDGHSPMYILKCL [Phage-79] | 2.34 | – | –
PDCQTILFKPWCVR [Phage-4] | 2.09 | – | –
PDCHTILFKPWCVR [Phage-16] | 1 | – | –
ACDTYFAGMINECF [Phage-5] | 0.92 | – | –
YCDGHSWIYMVKCL [Phage-717] | – | 1.16 | 0.06
YCAGHAWQYINKCL [Phage-13] | 0.64 | – | –
YCEGHIPAYMAKCL [Phage-746] | – | 1.06 | 0.08
YCEGHSEMYMSKCL [Phage-741] | – | 1.07 | 0.09
YCDGHAKVYIWKCL [Phage-745] | – | 1.06 | 0.08
YCVGHLPEYMLECM [Phage-739] | – | 1.08 | 0.07
YCEGHSPEYMAKCL [Phage-74] | 2.35 | – | –
YCDGHLPQYMAKCL [Phage-76] | 2.35 | – | –
YCDGHLPEYMMKCL [Phage-78] | 2.34 | – | –
YCDGHLPEYMSKCL [Phage-75] | 2.35 | – | –
YCDGHANAYIWKCL [Phage-742] | – | 1.07 | 0.09

Binder | Anti-CD28 Fab signal [1] | Anti-CD28 Fab (SEQ ID NOs: 202, 203) signal [2] | Anti-CD28 Fab signal in the presence of CD28 [3]
WCWDYKLWVPTQCP [Phage-7] | 2.27 | – | –
YCDGHAPIYMQKCL [Phage-747] | – | 1.06 | 0.06
YCEGHAQEYMAKCL [Phage-744] | – | 1.06 | 0.08
YCAGHTEEHYVKCM [Phage-22] | 0.62 | – | –
YCEGHLPQYMSKCL [Phage-719] | – | 1.15 | 0.09
DCPWLSGFSRPLLC [Phage-19] | 1.27 | – | –
YCMGHSHEHIWKCL [Phage-23] | 0.87 | – | –
WCWDYKLWVPMTCP [Phage-11] | 2.51 | – | –
YCAGHAEEYMLKCL [Phage-737] | – | 1.09 | 0.07
ECHWSMWAVGHACF [Phage-9] | 1.77 | – | –
YCEGHLWEYMKKCL [Phage-748] | – | 1.06 | 0.07
WCWDYREWVPMTCP [Phage-8] | 2.3 | – | –
WCWYYREWVPMTCP [Phage-14] | 1.85 | – | –
YCAGHSHEYLAKCE [Phage-24] | 0.86 | – | –
YCAGHMPQYEVKCL [Phage-21] | 0.22 | – | –
YCEGHMGEYMLKCL [Phage-735] | – | 1.1 | 0.06
YWSCFQIPFTCFYF [Phage-1] | 1.44 | – | –
YCAGHSPINIGKCL [Phage-10] | 1.49 | – | –
YCEGHIPMYMLKCM [Phage-743] | – | 1.06 | 0.09
DCWWMFESYPGRCI [Phage-12] | 1.65 | – | –
YCDGHAMEYMEKCL [Phage-733] | – | 1.11 | 0.08
YCDGHLSVYMSKCL [Phage-718] | – | 1.15 | 0.07
SCAAGASYAWPYCL [Phage-18] | 1.49 | – | –
